Results on two molecules are retold here after patent US20240190950A1 (SHANGHAI JIAO TONG UNIVERSITY, published 2024).

T1: FGFR1 (protein used in the ForteBio and ELISA assays) (human, UniProt P11362 22-376, limits assumed)
T1 construct: That entry still holds signal peptide, transmembrane and kinase parts; also called human FGFR1
T1 sequence: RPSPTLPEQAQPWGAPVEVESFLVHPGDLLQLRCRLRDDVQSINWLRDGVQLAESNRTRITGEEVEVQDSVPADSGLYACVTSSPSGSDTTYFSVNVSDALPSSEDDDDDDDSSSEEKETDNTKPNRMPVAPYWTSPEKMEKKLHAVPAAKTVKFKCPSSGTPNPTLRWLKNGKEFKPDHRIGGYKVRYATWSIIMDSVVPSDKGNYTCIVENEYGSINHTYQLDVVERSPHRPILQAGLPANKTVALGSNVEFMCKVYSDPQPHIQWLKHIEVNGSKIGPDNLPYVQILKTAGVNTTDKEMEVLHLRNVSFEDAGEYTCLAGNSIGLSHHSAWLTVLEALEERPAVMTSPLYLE

B1: Gremlin1 (human gremlin 1, hGREM1) (ligand)
chain: KKKGSQGAIPPPDKAQHNDSEQTQSPQQPGSRNRGRGQGRGTAMPGEEVLESSQEALHVTERKYLKRDWCKTQPLKQTIHEEGCNSRTIINRFCYGQCNSFYIPRHIRKEEGSFQSCSFCKPKKFTTMMVTLNCPELQPPTKKKRVTRVKQCRCISIDLD
modifications: biotin label in the ForteBio assay (site not stated)
notes: also called Gremlin1-biotin; Flag-tagged GREM1
B2: 14E3 (antibody, IgG2a, V domains shown)
VH: QIQLVQSGPELKKPGETVKISCKTSGSTFTTYGMAWMKQAPGKGLTWMGWINTLSGEPTYADDFKGRFAFSLKTSANTAYLQINNLKNEDAATYFCAREPMDYWGQGTSVIVSS
VL: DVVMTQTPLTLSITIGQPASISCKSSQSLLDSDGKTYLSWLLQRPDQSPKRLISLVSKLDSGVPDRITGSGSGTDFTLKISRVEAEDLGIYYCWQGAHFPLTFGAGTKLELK
notes: also called anti-human-Gremlin1 (14E3); anti-human-GREM1 antibody 14E3

Test [1] concerns the target T1, FGFR1 (protein used in the ForteBio and …). The test can be described thus: ForteBio (the text calls it surface plasmon resonance analysis); Gremlin1-biotin immobilized on streptavidin sensor, FGFR1 in solution. The source says:
We next asked the mechanism leading to the activation of the FGFR1/MEK/ERK signaling pathway by GREM1. We performed surface plasmon resonance analysis (Fortebio) to first assess whether GREM1 can bind to FGFR1. […] Computer simulation imitated that GREM1 binds to the extracellular domain of FGFR1 as a dimer (FIG. 9B). […] In addition, the activation of GREM1 on the FGFR1/MEK/ERK signaling pathway could be attenuated by adding excessive amount of soluble FGFR1 (FIG. 9G).
Background: BLI is a label-free optical method that tracks binding on a fibre tip over time.

Test [2] has as its target B1. The test can be described thus: ELISA, antibody titrated on Gremlin1 (Ab is anti-human-Gremlin1 14E3).

Broadly, the Kd is the concentration at which binding is half-saturated. Lower therefore signals higher affinity. Usually EC50 (read off the curve) stands for the concentration needed to bring the measured effect to its halfway point.

On to B1, for which the Kd in test [1] amounted to 10.6 nM.
As to B2, the “EC50 (read off the curve)” value in test [2] is around 10 ng/mL.
